Data taken from patent US20220119522A1.
Positions count from the first letter of the chain named.

T1: human TREM2 truncated stalk peptide (aa 149-163) (human)
T1 sequence (peptide, biotinylated (site not stated)): SFEDAHVEHSISRSL

T2: human TREM2 full length stalk region peptide (aa 129-172) (human)
T2 sequence (peptide, biotinylated (site not stated)): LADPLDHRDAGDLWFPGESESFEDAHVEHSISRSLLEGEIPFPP

B1: CL0020141 (antibody, V domains shown)
VH: EVTLVESGGGLVQPGGSLRLSCATSGFTFTDYYMSWVRQPPGKALEWLGFIRDKANGYTTDYSASVKGRFTISRDNSQNILYLQMNTLRAEDSATYYCSRLLRAQGFAYWGQGTLVTVSA
VL: DIVMSQSPSSLGVSIGEKVIMSCTSGQSLLYSNNQKNYLAWYQQKPGQSPKLLIYWASTRESGVPDRFTGSGSGTDFTLTINSVKAEDLAVYYCQQYYRNPFTFGSGTKLEIK
B2: CL0020188 (antibody, V domains shown)
VH: EVKLLDSGGGLVQAGGSLRLSCAGSGFTFTDFYMSWIRQPPGKAPEWLGVIRNKANGYTAGYNPSVKGRFTISRDNTQNILYLQMNTLRAEDTAIYYCARLTYGFDYWGQGVMVTVSS
VL: DIVMTQGALPNPVPSGESASITCQSSKSLLHSNGKTYLNWYLQRPGQSPQLLIYWMSTRASGVSDRFSGSGSGTDFTLKISSVEAEDVGVYYCQQFLEYPFTFGSGTKLEIK
B3: CL0020308 (antibody, V domains shown)
VH: QVQLKQSGPSLVQPSQSLSITCTVSGFSLTTYGIHWVRQSPGKGLEWLGVIWTGGSTAFNAAFMSRLSITKDNSKSQVFFKMNSLQADDTAIYYCAKVGFHSATDYWGQGTSVTVSS
VL: DVLMTQTPLSLPVTLGDQASISCRSSQNLVHSNGNTYLEWYLQKPGQSPKLLIYKVSNRFSGVPDRFSGSGSGTDFTLKISRVEAEDLGLYYCFQGSHVPFTFGSGTKLEIK
B4: CL0020309 (antibody, V domains shown)
VH: B3 VH with T31S, I34V, H35Q, S56T, A58D, M64K, T90S, V98I, T104V
VL: B3 VL with T14S, L29I, S81N, V99I, K108Q
B5: CL0020096 (antibody, V domains shown)
VH: QIQLVQSGPELRKPGETVKISCKASGYTFTTYGMSWVKQAPGKGLKWMGWINTYSGLPRHSDDFKGRFAFSLETSASTAYLQINNLKNEDTATYFCAREVYYGSRKTAWFAYWGQGTLVTVSA
VL: DLVMSQSPSSLAVSVGERVTMSCKSSQSLLYSNDQKNYLAWYQQIPGQSPKLLIYWASTRESGVPDRFTGSGSGTDFTLTISSVKAEDLAVYFCQQYYSYPPTFGAGTKLELK
B6: CL0020124 (antibody, V domains shown)
VH: EVQLQQSGPVLVKPGASVKMSCKPSGYTFTDYYMNWVKQSHGKSLEWIGSINPYTGGSSYNQKFRGKATLTVDKSSSTAYMELNSLTSEDSAVYYCARGSYYSNLGFAYWGQGTLVTVSA
VL: DVQLTQSPSYLTASPGETITINCRASKSISKYLAWYQEKPGKTNKLLISSGSTLQSGIPSRFSGSGSGTDFTLTISSLEPEDFAMYYCQQYSEYPFTFGSGTKLEIK
B7: CL0020107 (antibody, V domains shown)
VH: QVQLQQPGAELVKPGASVKMSCRASGYTFTNYWISWVKQRPGQGLEWIGDIYPHSTSTNYNERFRSKATLTVDKSSTTAYMQLSSLTSEDSAVYYCAREGFGISAWGQGTTLTVSS
VL: QIVLTQSPAIMSASPGEKVTITCSATSSVSYMHWFQQKPGTSPKLWIYSTSNLASGVPARFSGSGSGTSHSLTISRMEAEDAATYYCQQRSSYPLTFGSGTKLELK

molecular target: T1, human TREM2 truncated stalk peptide (aa 149-163) (human); assay: ELISA on biotinylated peptide captured by streptavidin; A450 normalised to isotype control

Row | Binder | fold over background (A450) [fold]
1 | B1 | 2.1
2 | B2 | 3
3 | B3 | 2.5
4 | B4 | 2.2
5 | B5 | 2.2

molecular target: T2, human TREM2 full length stalk region peptide (aa 129-172) (human); assay: as above

Row | Binder | fold over background (A450) [fold]
6 | B6 | 2.1

molecular target: mouse TREM2 truncated stalk peptide (aa 149-163) (mouse) (UniProt Q99NH8); assay: as above

Row | Binder | fold over background (A450) [fold]
7 | B1 | 1.4
8 | B2 | 0.9
9 | B3 | 1.1
10 | B4 | 1.3
11 | B7 | 1.6
12 | B5 | 1.3
13 | B6 | 1.7
